Experimental data taken from PMC6181972, “Indoleacetate decarboxylase is a glycyl radical enzyme catalysing the formation of malodorant skatole” (Nature Communications, 2018).

How the values were obtained:
purified protein = substrate: O=C(O)Cc1c[nH]c2ccccc12; assay: purified protein; conditions: activated with 100 nM OsIADAE, 1 mM SAM, 0.2 mM Ti(III) citrate, 20 mM Tris-HCl pH 7.5, 0.1 M KCl, 30 °C, anaerobic
[1] = target: the molecule itself; assay: SEC; size exclusion chromatography of purified recombinant OsIAD; column and buffer not told in the text shown (Supplementary Fig. 1c); dimer to monomers

B1: Olsenella scatoligenes indoleacetate decarboxylase (OsIAD) (enzyme, UniProt A0A100YXA1 1-878, looked up)
chain: MQESLVLEMLQTGKTATWPANSGTQDGEGFVDKEVKGVPSTDRTKRMKERFMNAKCKMDMEAPIAYTKAWRMYEGKPLYVRRGLSYKYMLEHLTPVIRPDELITMSKTRYDRGATQVPQFATDFMISFLTQAEDQKDEAKLFSVEGKDEAHTVDEEGWTPVGQLFSIREEEVKPMLEVLEYWKTRCVENVSDEWMKTSFPMYQDYINAKKVGLFPGSGLHAGCDGRWIPAYDVVLGGLNKVIDECKKNIAKTVVTTKDVADKVFFWQGCIYACEGAIAWANNYAKEARRLAEITPEPRKTELLQMAERLERVPAEPPRNFMEAVQALWTAQILIISDSLALGVSPGRWGKLLEPYYEKDLADGVITKEQALEVMEMLRIKFSTEEYITPSLWAAMASSNSFMNLAVGGLDPKTGQCTDNELEDLILQAGINMPTPQPTLSMLLSNKTSDHLALKAAECTKAGNGYPAWFNYDMMVEHNLWCYADEGITMEDARNCALSGCVENGLAGTGHPIAHPAFYNEGKTIELALHEGVDPRTGIKVMDGIKPVESYEDVWNNFVKIREHFMRVYMRYWNEVVACQRDIHPKIMGSIFMHDCVENGRPVDNLGCRYNGSVTLLDSGTVNVVNGLAAMKKLIWEDHKYTYAEFKEAMDNNFGFVLGAEKGNFSMLNQEIDPEKHMKYAQIHRDILNCPKFGNDDDFVDDIFVKVWQDYDRVTGSETTYNGYRWITAALSISAHGPHGRVTGATPDGRLAGVTLCDGILSASPGTDVNGPIALIRSGVKLDPTTFASVQLNMKFHPSAIRGEEGSKNFVDFIRSYFNMGGYHVQFNIVDSKMLRDAQDKPQNYRDLMVRVAGFSAYWNELGKPIQDEVIARTEYDAL
notes: Indoleacetate decarboxylase (glycyl radical enzyme) of Olsenella scatoligenes, UniProt A0A100YXA1; codon-optimized synthetic gene in pET-28a-HT (His6-tag, TEV protease cleavage site, then the construct); also called HT-IAD; A0A100YXA1; source: E. coli BL21 (DE3), purified (TALON, ammonium sulfate precipitation, G25 desalting)
Purified protein
  Km: 370 ± 60 µM
  kcat: 2.0 ± 0.1 s^–1
[1]
  stoichiometry N: 2
